For the test, the target named is recombinant CD47 (integrin associated protein), K24-S139, GST-fused (human). The test is described as follows: SPR; Biacore X100; recombinant CD47 immobilised on a CM5 chip (amine coupling), analyte at 0.125, 0.25, 0.5, 1 and 2 uM, single-cycle kinetics, 120 s contact, 180 s dissociation (last cycle 580 s); HBS-EP+ (10 mM HEPES pH 7.4, 150 mM NaCl, 3 mM EDTA, 0.05% P20).

As a reminder, the Kd is the constant that tells how readily two partners part at equilibrium. Broadly, the stoichiometry N is a count of units in the complex or per binding partner.

For “recombinant PfMSA180-Tr4 (PfMSA180 truncate 4, residues A805-P1093) (domain or fragment)”, the Kd was found to be 2.06 nM and the stoichiometry N stood at 1.

The values above are taken from article PMC6459815.
